In patent US20170173114A1, “METHODS AND COMPOSITIONS FOR INDUCTION OF UCP1 EXPRESSION” (Joslin Diabetes Center, Inc., priority 2014, published 2017):
Entries after “also recorded” stand apart in the source; their conditions may differ.

Experiments:
[1] = test system: WT-1 brown preadipocytes; assay: Mitochondrial DNA copy number and mitochondrial gene expression in brown preadipocytes; type: cell-based, murine; details: 24 hours; vs control
Experimental: In order to determine whether the marked changes in mitochondrial respiration observed in preadipocytes treated with FGF6 is due to increased mitochondrial mass and/or changes in mitochondrial dynamics, in addition to increased UCP1 expression, mitochondrial DNA (mtDNA) copy number (as the ratio of CoxII (mtDNA) over β-globin (nuclear DNA)) and expression of genes involved in mitochondrial replication (e.g., mTFA, Nrf1 and Nrf2) in brown preadipocytes was measured.

[2] = test system: UCP1; assay: UCP1 mRNA expression in SVF cells from interscapular brown adipose tissue (BAT-SVF); type: cell-based, C57BL/6 mice; details: growth media, 3 days; vs control
Experimental: Eight 6-week old C57BL/6 male mice were sacrificed. Interscapular BAT and axillary subcutaneous WAT were removed, minced and digested with 1 mg/ml collagenase for 45 minutes at 37° C. in DMEM/F12 media, containing 1% BSA and antibiotics. Digested tissues were filtered through sterile 150 μm nylon mesh and centrifuged at 250×g for 5 minutes. The floating fractions consisting of adipocytes were discarded and the pellets representing the SVF were then resuspended in erythrocyte lysis buffer (154 mM NH4Cl, 10 mM KHCO3, 0.1 mM EDTA) for 10 minutes to remove red blood cells. The cells were further centrifuged at 500×g for 5 minutes, plated at 8×10^5 cells/well of a 24-well plate and grown at 37° C. in DMEM/F12 supplemented with 10% FBS at 37° C.
To determine if FGF6 treatment of primary adipose progenitors could also increase UCP1 expression as observed in Example 1, stromo-vascular fraction (SVF) cells, which comprise adipocyte progenitors, were isolated from interscapular brown adipose tissue (BAT-SVF) and subcutaneous white adipose tissue (SQ-SVF). SVF cells were subsequently treated with FGF6 or FGF21 in growth media (DMEM+10% FBS) for 3 days, followed by determination of UCP1 expression. As described in FIGS. 9A and 9B, FGF21 treatment had little effect on UCP1 mRNA expression in either type of SVF cells, as compared to the control. […]

[3] = test system: WT-1 brown preadipocytes; assay: Seahorse Bioanalyzer cellular respiration in WT-1 brown preadipocytes; type: cell-based, murine
Text: The Seahorse XF24 (Seahorse Bioscience, http://www.seahorsebio.com/) was utilized for respirometry to measure oxygen consumption rates (OCR; indicating oxidative phosphorylation) and extracellular acidification rates (ECAR; indicating extracellular pH) in mature brown adipocytes. The cell plates and assay cartridges for the Seahorse XF24 have four ports allowing for drug delivery to individual wells during measurement of the metabolic parameters. For a typical bioenergetic profile, cells are first treated with oligomycin to block ATP synthase, FCCP as an uncoupler and Rotenone to block Complex 1 of the ETC (all from Sigma). Example 2 provides additional details regarding the general method. Data provided in the Figures (e.g., FIG. 27) based on the Seahorse Bioanalyzer includes a bottom horizontal line which represents the baseline of the mechanics of the machine and is not related to the experiment.
A profile of cellular respiration was developed by utilizing well-characterized mitochondrial toxins, as described in FIG. 5B. First, basal respiration was measured, followed by injection of oligomycin (an inhibitor of ATP synthase which allows measurement of ATP turnover). Then, the uncoupler FCCP (carbonilcyanide p-triflouromethoxyphenylhydrazone) was injected to measure respiratory capacity, followed by the complex 1 inhibitor rotenone (which prevents electron transfer activity and leaves only non-mitochondrial activity to be measured).
Similar results were observed when WT-1 brown preadipocytes were treated with 200 ng/mL of FGF6 for 24 hrs using the Seahorse Bioanalyzer.
The role of PGs in regulating mitochondrial function and cellular glucose uptake was also assessed. WT-1 brown preadipocytes were treated with PGE2, PGI2 and FGF6 in growth media (DMEM+10% FBS) for two days. Similar to treatment with FGF6, treatment with PGE2 and PGI2 enhanced oxygen consumption and glucose uptake, as described in FIGS. 27A and 27B, respectively.

[4] = test system: UCP1 protein; assay: UCP1 protein in WT-1 cells (immunofluorescent staining, Western blot); type: cell-based, murine; details: for UCP1 protein, immunofluorescent staining: relative to control cells
Experimental: Cells were harvested in lysis buffer (50 mM HEPES, 137 mM NaCl, 1 mM MgCl2, 1 mM CaCl2, 10 mM Na2P2O7, 10 mM NaF, 2 mM EDTA, 10% glycerol, 1% Igepal CA-630, 2 mM vanadate, 10 μg/ml of leupeptin, 10 μg/ml of aprotinin, 2 mM phenylmethylsulfonyl fluoride; pH 7.4). After lysis, lysates were clarified by centrifugation at 12,000×g for 20 min at 4° C., the amount of protein in the supernatants was determined by the Bradford Protein Assay (Bio-Rad Laboratories, Hercules, Calif.). Proteins were directly solubilized in Laemmli sample buffer. Equal amounts of lysates were separated by sodium dodecyl sulfate-polyacrylamide gel electrophoresis and transferred to Immobolin-P membranes. Membranes were blocked overnight at 4° C. and incubated with the indicated antibody for 2 hours at room temperature. Specifically bound primary antibodies were detected with peroxidase-coupled secondary antibody and enhanced chemiluminescence (ECL, Amersham Biosciences, Piscataway, N.J.).
The effect of FGF6 on differentiation of WT-1 murine brown preadipocytes was also examined. WT-1 cells can be induced to undergo brown adipocyte differentiation, characterized by lipid accumulation and expression of adipogenic and brown fat markers, as described above (Klein et al. (1999) J Biol Chem 274:34795; Tseng et al. (2005) Nat Cell Biol 7:601). WT-1 cells were treated with FGF6 in growth media (DMEM+10% FBS), a vehicle control (“control” or “C” referred to in FIGS. 3A-D), or induction media (“induction” or “I” referred to in FIGS. 3A-D) as described above for seven days. Following the treatment, cells were examined for the color of the culture media in combination with oil Red O staining, expression of adipogenic markers, expression of brown fat markers, immunofluorescent staining of cells with UCP1 and DPAI, and Western blot analysis to determine the presence of UCP1 and β-tubulin. The results are described in FIGS. 3A to 3D.
FGF2, FGF6 and FGF9 were used at a dosage of 200 ng/mL. Cells were stained using immunofluorescent stains for UCP1 and DAPI (which binds to DNA).

B1: FGF6: fibroblast growth factor 6; recombinant human FGF from R&D Systems, or mouse FGF6 cDNA overexpressed by lentiviral vector (protein)
chain: KRQRRLYCNVGIGFHLQVLPDGRISGTHEENPYSLLEISTVERGVVSLFGVRSALFVAMNSKGRLYATPSFQEECKFRETLLPNNYNAYESDLYQGTYIALSKYGRVKRGSKVSPIMTVTHFLPRI
[1]
  expression of nuclear-encoded mitochondrial genes: not significantly altered
  mitochondrial DNA copy number (CoxII over β-globin): no significant difference; also recorded: does not alter
[2]
  increase of UCP1 mRNA expression in BAT-SVF: 4 fold
[3]; FGF6 overexpressing WT-1 vs control cells
  cellular respiration (basal respiration, ATP turnover, proton leak, respiratory capacity): increase in all tested aspects of cellular respiration
[3]; WT-1 treated with 200 ng/mL for 24 hrs
  uncoupled respiration: elevation in uncoupled respiration
[3]; WT-1 treated with 200 ng/mL for 24 hrs vs control cells
  cellular respiration (basal respiration, ATP turnover, proton leak, respiratory capacity): coordinated increase in all aspects of cellular respiration
[4]; WT-1, 200 ng/mL with insulin 20 nM and T3 1 nM
  UCP1 protein, immunofluorescent staining: significant levels of staining
[4]; WT-1, seven days
  UCP1 protein, Western blot: present
  UCP1 protein, immunofluorescent staining: significant levels of staining
